How the values were obtained:
Test in all cases: cell-based or functional assay
[1] = target: HIV-1 Env of isolate MGRM-Chronic-B-010 (subtype B) (HIV-1)
[2] = target: HIV-1 Env of isolate VLGCA1 (subtype A) (HIV-1)
[3] = target: HIV-1 Env of isolate MG RM-D-005 (HIV-1)
[4] = target: HIV-1 Env of isolate MGRM-AG-003 (subtype AG) (HIV-1)
[5] = target: HIV-1 Env of isolate SF162 (subtype B) (HIV-1) (UniProt P19550)
[6] = target: HIV-1 Env of isolate MGRM-A-003 (HIV-1)
[7] = target: HIV-1 Env of isolate 92UG114 (HIV-1)
[8] = target: HIV-1 Env of isolate MGRM-A-005 (HIV-1)
[9] = target: HIV-1 Env of isolate MG RM-D-022 (HIV-1)
[10] = target: HIV-1 Env of isolate MGRM-AE-002 (subtype AE) (HIV-1)
[11] = target: HIV-1 Env of isolate QH0692.42 (subtype B) (HIV-1)
[12] = target: HIV-1 Env of isolate MGRM-Chronic-B-023 (subtype B) (HIV-1)
[13] = target: HIV-1 Env of isolate MGRM-D-021 (pseudovirus) (HIV-1)
[14] = target: HIV-1 Env of isolate MGRM-Chronic-B-018 (subtype B pseudovirus) (HIV-1)
[15] = target: HIV-1 92BR020 Env (pseudovirus) (HIV-1)
[16] = target: HIV-1 APV17 Env (pseudovirus, clade B) (HIV-1)
[17] = target: HIV-1 Env of isolate MGRM-D-013 (pseudovirus) (HIV-1)
[18] = target: HIV-1 Env of isolate MGRM-D-020 (pseudovirus) (HIV-1)
[19] = target: HIV-1 Env of isolate MGRM-C-027 (HIV-1)
[20] = target: HIV-1 Env of isolate MGRM-F1-013 (HIV-1)
[21] = target: HIV-1 Env of isolate MGRM-AE-006 (HIV-1)
[22] = target: HIV-1 NL43 envelope glycoprotein (Env) on pseudovirus (HIV-1)
[23] = target: HIV-1 Env of isolate SF162 (subtype B pseudovirus) (HIV-1) (UniProt P19550)
[24] = target: HIV-1 93UG077 envelope glycoprotein (Env) on pseudovirus (HIV-1)
[25] = target: aMLV envelope (pseudovirus, negative control)
[26] = target: HIV-1 Env of isolate MGRM-F1-015 (HIV-1)
[27] = target: HIV-1 Env of isolate MGRM-D-001 (clade D), on pseudovirus (HIV-1)
[28] = target: HIV-1 92UG005 envelope glycoprotein (Env) on pseudovirus (HIV-1)
[29] = target: HIV-1 Env of isolate MGRM-Chronic-B-008 (subtype B pseudovirus) (HIV-1)
[30] = target: HIV-1 Env of isolate APV_17 (subtype B pseudovirus) (HIV-1)
[31] = target: HIV-1 Env of pseudovirus MGRM-AE-002 (clade CRF01_AE) (HIV-1)
[32] = target: HIV-1 Env of pseudovirus MGRM-AG-003 (clade CRF_AG) (HIV-1)
[33] = target: HIV-1 Env of isolate NL43, clade B, on pseudovirus (HIV-1)
[34] = target: HIV-1 envelope glycoprotein (Env) of isolate 92UG031, clade A (HIV-1)
[35] = target: HIV-1 Env of isolate 6535.3 (Acute), clade B, on pseudovirus (HIV-1)
[36] = target: HIV-1 Env of isolate THR0.18 (Acute), clade B, on pseudovirus (HIV-1)
[37] = target: HIV-1 envelope glycoprotein (Env) of isolate 92RW008, clade A (HIV-1)
[38] = target: HIV-1 Env of isolate 93TH305, clade B, on pseudovirus (HIV-1)
[39] = target: HIV-1 Env of isolate MGRM-D-004 (clade D pseudovirus) (HIV-1)
[40] = target: HIV-1 Env of pseudovirus MGRM-AE-001 (clade CRF01_AE) (HIV-1)
[41] = target: HIV-1 APV-17 envelope glycoprotein (Env) on pseudovirus (HIV-1)

4980_N08 (PGT-143) (antibody), sequence (VH): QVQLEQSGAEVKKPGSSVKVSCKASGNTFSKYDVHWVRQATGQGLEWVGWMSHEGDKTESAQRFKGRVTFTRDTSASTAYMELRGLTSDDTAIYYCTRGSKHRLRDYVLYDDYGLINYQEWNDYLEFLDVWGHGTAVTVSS
4980_N08 (PGT-143) (antibody), sequence (VL): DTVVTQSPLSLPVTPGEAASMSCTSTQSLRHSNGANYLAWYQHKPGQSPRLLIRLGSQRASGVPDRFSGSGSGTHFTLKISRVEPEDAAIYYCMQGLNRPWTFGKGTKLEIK
4993_K13 (PGT-141) (antibody), sequence (VH): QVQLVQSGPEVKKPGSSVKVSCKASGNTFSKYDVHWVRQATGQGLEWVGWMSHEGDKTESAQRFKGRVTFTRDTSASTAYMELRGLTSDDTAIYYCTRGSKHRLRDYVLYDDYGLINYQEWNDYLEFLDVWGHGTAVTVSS
4993_K13 (PGT-141) (antibody), sequence (VL): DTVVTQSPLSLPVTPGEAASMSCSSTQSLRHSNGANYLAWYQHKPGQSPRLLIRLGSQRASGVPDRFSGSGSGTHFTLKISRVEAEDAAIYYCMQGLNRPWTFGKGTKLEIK
4995_E20 (PGT-142) (antibody), sequence (VH): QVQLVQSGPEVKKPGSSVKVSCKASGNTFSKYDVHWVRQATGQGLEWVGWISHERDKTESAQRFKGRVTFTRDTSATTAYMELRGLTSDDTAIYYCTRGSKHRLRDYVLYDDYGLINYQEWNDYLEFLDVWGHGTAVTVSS
4970_K22 (PGT-144) (antibody), sequence (VH): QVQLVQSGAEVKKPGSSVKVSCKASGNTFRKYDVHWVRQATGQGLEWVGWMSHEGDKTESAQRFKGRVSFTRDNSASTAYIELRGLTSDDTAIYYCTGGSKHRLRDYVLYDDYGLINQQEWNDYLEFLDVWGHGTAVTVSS
4970_K22 (PGT-144) (antibody), sequence (VL): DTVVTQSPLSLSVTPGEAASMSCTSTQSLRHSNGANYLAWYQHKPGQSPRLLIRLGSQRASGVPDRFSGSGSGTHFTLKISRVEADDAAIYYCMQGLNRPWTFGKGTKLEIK
5345_I01 (PGT-137) (antibody), sequence (VH): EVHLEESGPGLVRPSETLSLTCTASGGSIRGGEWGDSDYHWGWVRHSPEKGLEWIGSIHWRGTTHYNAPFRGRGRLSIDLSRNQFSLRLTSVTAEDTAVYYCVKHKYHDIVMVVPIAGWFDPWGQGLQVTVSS
5345_I01 (PGT-137) (antibody), sequence (VL): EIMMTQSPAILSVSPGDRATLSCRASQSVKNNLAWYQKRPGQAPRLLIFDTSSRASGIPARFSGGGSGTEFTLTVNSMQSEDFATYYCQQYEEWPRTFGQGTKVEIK

| Substance | IC50 (µg/mL), pseudovirus neutralization [2] [µg/mL] | IC50 (µg/mL), pseudovirus neutralization [10] [µg/mL] | IC50, pseudovirus neutralization [13] [µg/mL] | IC50 (µg/mL), pseudovirus neutralization [14] [µg/mL] | neutralization IC50 (pseudovirus) [15] [µg/mL] | IC50, pseudovirus neutralization [17] [µg/mL] | IC50, pseudovirus neutralization [18] [µg/mL] | neutralization IC50 [19] [µg/mL] | IC50 (µg/mL), pseudovirus neutralization [20] [µg/mL] | IC50 [21] [µg/mL] | IC50 (µg/mL), pseudovirus neutralization [23] [µg/mL] | neutralization IC50 (pseudovirus) [25] [µg/mL] | IC50 (µg/mL), pseudovirus neutralization [26] [µg/mL] | IC50 (µg/mL), pseudovirus neutralization [29] [µg/mL] | IC50 (µg/mL), pseudovirus neutralization [30] [µg/mL] | further results |
| --- | --- | --- | --- | --- | --- | --- | --- | --- | --- | --- | --- | --- | --- | --- | --- | --- |
| 5136_H01 (PGT-131) (antibody) | > 50 | > 50 |  |  |  |  |  |  |  |  |  |  |  |  |  | IC50 neutralization [1]: 0.016 µg/mL; IC50 (µg/mL), pseudovirus neutralization [3]: > 50 µg/mL; IC50 (µg/mL), pseudovirus neutralization [4]: 2.92 µg/mL; IC50 neutralization [5]: 0.025 µg/mL; IC50 [6]: > 50 µg/mL; IC50 (µg/mL), pseudovirus neutralization [7]: > 50 µg/mL; IC50 [8]: > 50 µg/mL; IC50 (µg/mL), pseudovirus neutralization [9]: > 50 µg/mL; IC50 neutralization [11]: > 50 µg/mL; IC50 neutralization [12]: > 50 µg/mL |
| 4858_P08 (PGT-123) (antibody) |  |  | 11.1 | > 50 | 0.013 | > 50 | 0.018 | 0.02 | 0.08 | > 50 | 0.005 | > 10 | > 50 | 0.01 | 0.114 | IC50 neutralization [16]: 0.18 µg/mL; neutralization IC50 [22]: > 10 µg/mL; neutralization IC80 [22]: > 10 µg/mL; neutralization IC90 [22]: > 10 µg/mL; neutralization IC95 [22]: > 10 µg/mL; neutralization IC50 [24]: 0.0303 µg/mL; neutralization IC80 [24]: 0.143 µg/mL; neutralization IC90 [24]: 0.35 µg/mL; neutralization IC95 [24]: 0.78 µg/mL; IC50, pseudovirus neutralization [27]: 0.215 µg/mL; neutralization IC50 [28]: 2.49 µg/mL; neutralization IC80 [28]: > 10 µg/mL; neutralization IC90 [28]: > 10 µg/mL; neutralization IC95 [28]: > 10 µg/mL |
| 4980_N08 (PGT-143) (antibody) | 17.4 | > 50 |  |  | > 10 |  |  |  |  |  |  |  |  |  |  |  |
| 4993_K13 (PGT-141) (antibody) | 2.07 | > 50 |  |  | > 10 |  |  |  |  |  |  |  |  |  |  |  |
| 4877_D15 (PGT-122) (antibody) |  |  | 11.7 | > 50 | 0.0337 | > 50 | 0.007 | 0.039 | 0.152 | > 50 | 0.009 | > 10 | 31.4 | 0.017 | 0.25 | IC50 neutralization [16]: 0.522 µg/mL; IC50, pseudovirus neutralization [27]: 0.867 µg/mL |
| 5145_B14 (PGT-127) (antibody) |  |  | 0.056 | 1.9 |  | > 50 | 0.015 | > 50 | > 50 | > 50 | 0.019 |  | > 50 | 21.5 | 10.4 |  |
| 4838_L06 (PGT-121) (antibody) |  |  | 5.33 | > 50 |  | > 50 | 0.01 | 0.011 | 0.083 | > 50 | 0.005 | > 10 | 28.4 | 0.007 | 0.066 |  |
| 5123_A06 (PGT-125) (antibody) |  |  | 0.015 | > 50 | 0.0214 | > 50 | > 50 | > 50 | > 50 | 0.009 | 0.004 | > 10 | > 50 | > 50 | 8.06 | IC50 neutralization [16]: 7.31 µg/mL; IC50, pseudovirus neutralization [27]: 2.31 µg/mL |
| 1496_C09 (PG9) (TCN-109) (antibody) |  |  |  |  |  |  |  |  |  |  |  |  |  |  |  | IC50 [31]: 0.04 µg/mL; IC50 [32]: 9.71 µg/mL; IC50 (µg/ml), pseudovirus neutralization [33]: 0.32 µg/mL; IC50 (µg/ml), pseudovirus neutralization [34]: 3.08 µg/mL; IC50 (µg/ml), pseudovirus neutralization [35]: 0.22 µg/mL; IC50 (µg/ml), pseudovirus neutralization [36]: 12.4 µg/mL; IC50 (µg/ml), pseudovirus neutralization [37]: 0.01 µg/mL; IC50 (µg/ml), pseudovirus neutralization [38]: 2.08 µg/mL; IC50 (µg/ml), pseudovirus neutralization [39]: 0.03 µg/mL; IC50 [40]: 2.97 µg/mL; IC50, pseudovirus neutralization [41]: 26.4 µg/mL |
| 4970_K22 (PGT-144) (antibody) | > 50 | > 50 |  |  | > 10 |  |  |  |  |  |  |  |  |  |  |  |
| 5345_I01 (PGT-137) (antibody) | > 50 | > 50 |  |  |  |  |  |  |  |  |  |  |  |  |  | IC50 neutralization [1]: > 50 µg/mL; IC50 (µg/mL), pseudovirus neutralization [3]: > 50 µg/mL; IC50 (µg/mL), pseudovirus neutralization [4]: > 50 µg/mL; IC50 neutralization [5]: 3.41 µg/mL; IC50 [6]: > 50 µg/mL; IC50 (µg/mL), pseudovirus neutralization [7]: > 50 µg/mL; IC50 [8]: > 50 µg/mL; IC50 (µg/mL), pseudovirus neutralization [9]: > 50 µg/mL; IC50 neutralization [11]: > 50 µg/mL; IC50 neutralization [12]: > 50 µg/mL |
| VRC01 (antibody) | 0.163 | 0.217 |  |  |  |  |  |  |  |  |  |  |  |  |  | IC50 (µg/mL), pseudovirus neutralization [19]: 0.125 µg/mL; IC50 [20]: 0.17 µg/mL; IC50 [26]: 0.387 µg/mL; IC50 [9]: > 50 µg/mL |
| 5114_A19 (PGT-128) (antibody) | 0.838 | 0.522 |  |  |  |  |  |  |  |  |  |  |  |  |  | IC50 neutralization [1]: 0.004 µg/mL; IC50 (µg/mL), pseudovirus neutralization [3]: 0.051 µg/mL; IC50 (µg/mL), pseudovirus neutralization [4]: 34.8 µg/mL; IC50 neutralization [5]: 0.007 µg/mL; IC50 [6]: > 50 µg/mL; IC50 (µg/mL), pseudovirus neutralization [7]: 0.083 µg/mL; IC50 [8]: > 50 µg/mL; IC50 (µg/mL), pseudovirus neutralization [9]: > 50 µg/mL; IC50 neutralization [11]: 0.029 µg/mL; IC50 neutralization [12]: > 50 µg/mL |
| 5141_B17 (PGT-126) (antibody) |  |  | 0.047 | 0.052 | 0.0163 | > 50 | 0.023 | 15.6 | > 50 | 17.3 | 0.003 | > 10 | > 50 | 5.89 | 0.353 | IC50 neutralization [16]: 0.501 µg/mL; IC50, pseudovirus neutralization [22]: > 10 µg/mL; IC80 (pseudovirus neutralization) [22]: > 10 µg/mL; IC90 (pseudovirus neutralization) [22]: > 10 µg/mL; IC95 (pseudovirus neutralization) [22]: > 10 µg/mL; IC50, pseudovirus neutralization [24]: 0.0256 µg/mL; IC80 (pseudovirus neutralization) [24]: 0.102 µg/mL; IC90 (pseudovirus neutralization) [24]: 0.238 µg/mL; IC95 (pseudovirus neutralization) [24]: 0.577 µg/mL; IC50, pseudovirus neutralization [27]: 0.0639 µg/mL; IC50, pseudovirus neutralization [28]: 0.0181 µg/mL; IC80 (pseudovirus neutralization) [28]: 0.145 µg/mL; IC90 (pseudovirus neutralization) [28]: 0.553 µg/mL; IC95 (pseudovirus neutralization) [28]: 2.45 µg/mL |
| 4995_E20 (PGT-142) (antibody) | 2.75 | > 50 |  |  | > 10 |  |  |  |  |  |  |  |  |  |  |  |

Reference: US20250320281A1
